{
  "source": "patent US20250381289A1",
  "about": "(Genmab, published 2025)",
  "key": {"[1]": {"molecular_target": "T1, cMET on EGFR and cMET co-expressed tumor cell lines (UniProt P08581 25-1390, limits assumed)", "T1 construct": "whole, on cells", "test": "flow cytometry, MKN-45 cells"}, "[2]": {"molecular_target": "T1, cMET on EGFR and cMET co-expressed …", "test": "flow cytometry, MKN-45 cells", "remark": "listed apart in the source"}, "human cMET-Fc": {"molecular_target": "T2, human cMET-Fc (human, UniProt P08581 25-932)", "T2 construct": "not shown: Fc part, not described", "test": "blocking ELISA: coated human cMET-Fc, antibody titrated, then human HGF-His (blocked ligand), anti-His-HRP"}, "Human EGFR": {"molecular_target": "T3, Human EGFR (human, UniProt P00533)", "T3 construct": "recombinant protein coated on the ELISA plate; also called human EGFR recombinant protein", "test": "ELISA, plate coated with 100 ng/well human EGFR recombinant protein, HRP anti-human Fc, OD450"}, "Human cMET": {"molecular_target": "T4, Human cMET", "T4 construct": "also called human cMET recombinant protein", "T4 chain": "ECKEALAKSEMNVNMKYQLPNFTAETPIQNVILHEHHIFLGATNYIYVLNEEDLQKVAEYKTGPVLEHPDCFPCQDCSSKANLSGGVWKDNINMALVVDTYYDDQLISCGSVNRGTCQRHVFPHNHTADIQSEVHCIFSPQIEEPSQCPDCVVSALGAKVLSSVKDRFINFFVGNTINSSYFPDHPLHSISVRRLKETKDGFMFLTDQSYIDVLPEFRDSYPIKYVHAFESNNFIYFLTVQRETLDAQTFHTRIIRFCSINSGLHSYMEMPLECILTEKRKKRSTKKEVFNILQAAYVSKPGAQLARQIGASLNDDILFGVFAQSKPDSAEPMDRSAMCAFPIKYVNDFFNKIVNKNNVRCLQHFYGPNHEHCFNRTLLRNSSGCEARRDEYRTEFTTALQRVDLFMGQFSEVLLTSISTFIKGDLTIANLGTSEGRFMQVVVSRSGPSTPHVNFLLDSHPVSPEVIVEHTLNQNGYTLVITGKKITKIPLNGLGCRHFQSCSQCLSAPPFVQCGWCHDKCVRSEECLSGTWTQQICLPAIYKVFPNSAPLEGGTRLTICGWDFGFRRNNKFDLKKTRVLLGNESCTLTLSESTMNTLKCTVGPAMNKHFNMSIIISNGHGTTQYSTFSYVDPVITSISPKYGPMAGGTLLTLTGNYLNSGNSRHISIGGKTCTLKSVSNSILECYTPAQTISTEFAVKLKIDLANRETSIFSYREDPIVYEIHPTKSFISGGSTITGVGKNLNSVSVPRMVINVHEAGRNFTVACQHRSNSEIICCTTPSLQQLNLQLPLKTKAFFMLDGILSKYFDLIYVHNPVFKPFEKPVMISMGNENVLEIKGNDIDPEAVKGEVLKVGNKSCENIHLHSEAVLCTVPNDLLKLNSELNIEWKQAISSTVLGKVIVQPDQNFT", "test": "ELISA, plate coated with 100 ng/well human cMET recombinant protein, HRP anti-human Fc, OD450"}, "[3]": {"molecular_target": "T5, EGFR on EGFR and cMET co-expressed tumor cell lines (UniProt P00533 25-1210, limits assumed)", "T5 construct": "whole, on cells", "test": "flow cytometry on EBC-1 cells (co-express EGFR and cMET), PE anti-human Fc; signal of the whole bispecific, not resolved by arm"}, "[4]": {"molecular_target": "T1, cMET on EGFR and cMET co-expressed …", "test": "flow cytometry on EBC-1 cells (co-express EGFR and cMET), PE anti-human Fc; signal of the whole bispecific, not resolved by arm"}, "[5]": {"molecular_target": "T5, EGFR on EGFR and cMET co-expressed …", "test": "flow cytometry on SNU-5 cells (co-express EGFR and cMET), PE anti-human Fc; signal of the whole bispecific, not resolved by arm"}, "[6]": {"molecular_target": "T1, cMET on EGFR and cMET co-expressed …", "test": "flow cytometry on SNU-5 cells (co-express EGFR and cMET), PE anti-human Fc; signal of the whole bispecific, not resolved by arm"}, "[7]": {"molecular_target": "T5, EGFR on EGFR and cMET co-expressed …", "test": "flow cytometry on CAL-27 cells (co-express EGFR and cMET), PE anti-human Fc; signal of the whole bispecific, not resolved by arm"}, "[8]": {"molecular_target": "T1, cMET on EGFR and cMET co-expressed …", "test": "flow cytometry on CAL-27 cells (co-express EGFR and cMET), PE anti-human Fc; signal of the whole bispecific, not resolved by arm"}, "[9]": {"molecular_target": "T5, EGFR on EGFR and cMET co-expressed …", "test": "flow cytometry, EBC-1 cells (co-express EGFR and cMET; both arms contribute)"}, "[10]": {"molecular_target": "T1, cMET on EGFR and cMET co-expressed …", "test": "flow cytometry, EBC-1 cells (co-express EGFR and cMET; both arms contribute)"}, "[11]": {"molecular_target": "T1, cMET on EGFR and cMET co-expressed …", "test": "flow cytometry, MKN-45 cells", "remark": "listed apart in the source"}, "[12]": {"molecular_target": "T1, cMET on EGFR and cMET co-expressed …", "test": "flow cytometry, NCI-H441 cells"}, "[13]": {"molecular_target": "T1, cMET on EGFR and cMET co-expressed …", "test": "flow cytometry, NCI-H1975 cells"}},
  "data": [
    {"binder": "Telisotuzumab (antibody, V domains shown) VH: QVQLVQSGAEVKKPGASVKVSCKASGYIFTAYTMHWVRQAPGQGLEWMGWIKPNNGLANYAQKFQGRVTMTRDTSISTAYMELSRLRSDDTAVYYCARSEITTEFDYWGQGTLVTVSS VL: DIVMTQSPDSLAVSLGERATINCKSSESVDSYANSFLHWYQQKPGQPPKLLIYRASTRESGVPDRFSGSGSGTDFTLTISSLQAEDVAVYYCQQSKEDPLTFGGGTKVEIK", "values": [
      {"measurement": "EC50 (read off the curve)", "setting": "[1]", "result": "~0.8", "unit": "nM"},
      {"measurement": "EC50 (read off the curve)", "setting": "[2]", "result": "~1", "unit": "nM"},
      {"measurement": "IC50 (read off the curve)", "setting": "human cMET-Fc", "result": "~1", "unit": "nM"}
    ]},
    {"binder": "AZD9592 (bispecific antibody, human IgG1, kappa, lambda) anti-EGFR heavy chain: QVQLVQSGAEVKKPGSSVKVSCKASGGTFSDNDFSWVRQAPGQGLEWMGAIVAVFRTETYAQKFQDRVKITADISTRTTYMELSSLRSEDTAVYYCARRLMSAISGPGAPLLMWGQGTLVTVSSASTKGPSVCPLAPSSKSTSGGTAALGCLVKDYFPEPVTVSWNSGALTSGVHTFPAVLQSSGLYSLSSVVTVPSSSLGTQTYICNVNHKPSNTKVDKRVEPKSVDKTHTCPPCPAPEFEGGPSVFLFPPKPKDTLMISRTPEVTCVVVDVSHEDPEVKFNWYVDGVEVHNAKTKPREEQYNSTYRVVSVLTVLHQDWLNGKEYKCKVSNKALPASIEKTISKAKGQPREPQVYTLPPCREEMTKNQVSLWCLVKGFYPSDIAVEWESNGQPENNYKTTPPVLDSDGSFFLYSKLTVDKSRWQQGNVFSCSVMHEALHNHYTQKSLSLSPGK anti-EGFR light chain: QSALTQPRSVSGSPGQSVTISCTGTSSDVGGYNYVSWYQQHPGKAPKLMIYDVSKRPSGVPDRFSGSKSGNTASLTISGLQAEDEADYYCSSYTSSDTLEIFGGGTKLTVLGQPKAAPSVTLFPPCSEELQANKATLVCLISDFYPGAVTVAWKADSSPVKAGVETTTPSKQSNNKYAASSYLSLTPEQWKSHRSYSCQVTHEGSTVEKTVAPTEVS anti-cMET heavy chain: QVQLVQSGAEVKKPGASVKVSCKASGYTFTDYYIHWVRQATGQGLEWMGWMNPNSGNTGYAQKFQGRVTMTRDTSISTAYMELSSLRSEDTAVYYCARGQGYTHSWGQGTMVTVSSASTKGPSVFPLAPSSKSTSGGTAALGCLVKDYFPEPVTVSWNSGALTSGVHTFPAVLQSSGLYSLSSVVTVPSSSLGTQTYICNVNHKPSNTKVDKRVEPKSCDKTHTCPPCPAPEFEGGPSVFLFPPKPKDTLMISRTPEVTCVVVDVSHEDPEVKFNWYVDGVEVHNAKTKPREEQYNSTYRVVSVLTVLHQDWLNGKEYKCKVSNKALPASIEKTISKAKGQPREPQVCTLPPSREEMTKNQVSLSCAVKGFYPSDIAVEWESNGQPENNYKTTPPVLDSDGSFFLVSKLTVDKSRWQQGNVFSCSVMHEALHNHYTQKSLSLSPGK anti-cMET light chain: DIQMTQSPSTLSASVGDRVTITCRASEGIYHWLAWYQQKPGKAPKLLIYKASSLASGVPSRFSGSGSGTEFTLTISSLQPDDFATYYCQQYSNYPPTFGGGTKLEIKRTVAAPSVFIFPPSDEQLKSGTASVVCLLNNFYPREAKVQWKVDNALQSGNSQESVTEQDSKDSTYSLSSTLTLSKADYEKHKVYACEVTHQGLSSPVTKSFNRGEC", "values": [
      {"measurement": "EC50 (read off the curve)", "setting": "Human EGFR", "result": "~1", "unit": "nM"},
      {"measurement": "EC50 (read off the curve)", "setting": "Human cMET", "result": "~0.07", "unit": "nM"},
      {"measurement": "EC50 (read off the curve)", "setting": "[3]", "result": "~2", "unit": "nM"},
      {"measurement": "EC50 (read off the curve)", "setting": "[4]", "result": "~2", "unit": "nM"},
      {"measurement": "EC50 (read off the curve)", "setting": "[5]", "result": "~3", "unit": "nM"},
      {"measurement": "EC50 (read off the curve)", "setting": "[6]", "result": "~3", "unit": "nM"},
      {"measurement": "EC50 (read off the curve)", "setting": "[7]", "result": "~10", "unit": "nM"},
      {"measurement": "EC50 (read off the curve)", "setting": "[8]", "result": "~10", "unit": "nM"}
    ]},
    {"binder": "Bsab 44 (bispecific antibody, human IgG1, kappa, L234A L235A) anti EGFR knob chain (scFab): not shown anti cMET hole chain (scFab): DIQMTQSPSSLSASVGDRVTITCKSSQSLLYTSSQKNYLAWYQQKPGKAPKLLIYWASTRESGVPSRFSGSGSGTDFTLTISSLQPEDFATYYCQQYYAYPWTFGQGTKVEIKRTVAAPSVFIFPPSDEQLKSGTASVVCLLNNFYPREAKVQWKVDNALQSGNSQESVTEQDSKDSTYSLSSTLTLSKADYEKHKVYACEVTHQGLSSPVTKSFNRGECGGGGSGGGGSGGGGSGGGGSGGGGSGGGGSGGGGSGGGGSEVQLVESGGGLVQPGGSLRLSCAASGYTFTSYWLHWVRQAPGKCLEWVGMIDPSNSDTRFNPNFKDRFTISADTSKNTAYLQMNSLRAEDTAVYYCATYRSYVTPLDYWGQGTLVTVSSASTKGPSVFPLAPSSKSTSGGTAALGCLVKDYFPEPVTVSWNSGALTSGVHTFPAVLQSSGLYSLSSVVTVPSSSLGTQTYICNVNHKPSNTKVDKKVEPKSCDKTHTCPPCPAPEAAGGPSVFLFPPKPKDTLMISRTPEVTCVVVDVSHEDPEVKFNWYVDGVEVHNAKTKPREEQYNSTYRVVSVLTVLHQDWLNGKEYKCKVSNKALPAPIEKTISKAKGQPREPQVYTLPPCREEMTKNQVSLSCAVKGFYPSDIAVEWESNGQPENNYKTTPPVLDSDGSFFLVSKLTVDKSRWQQGNVFSCSVMHEALHNHYTQKSLSLSPGK", "values": [
      {"measurement": "EC50 (read off the curve)", "setting": "[9]", "result": "~2", "unit": "nM"},
      {"measurement": "EC50 (read off the curve)", "setting": "[10]", "result": "~2", "unit": "nM"}
    ]},
    {"binder": "Onartuzumab (antibody, V domains shown) VH: EVQLVESGGGLVQPGGSLRLSCAASGYTFTSYWLHWVRQAPGKGLEWVGMIDPSNSDTRFNPNFKDRFTISADTSKNTAYLQMNSLRAEDTAVYYCATYRSYVTPLDYWGQGTLVTVSS VL: DIQMTQSPSSLSASVGDRVTITCKSSQSLLYTSSQKNYLAWYQQKPGKAPKLLIYWASTRESGVPSRFSGSGSGTDFTLTISSLQPEDFATYYCQQYYAYPWTFGQGTKVEIK", "values": [
      {"measurement": "EC50 (read off the curve)", "setting": "[11]", "result": "~1", "unit": "nM"},
      {"measurement": "EC50 (read off the curve)", "setting": "[12]", "result": "~0.7", "unit": "nM"},
      {"measurement": "EC50 (read off the curve)", "setting": "[13]", "result": "~0.4", "unit": "nM"}
    ]}
  ]
}
